# In article PMC11315935, “Multi-layered heterochromatin interaction as a switch for DIM2-mediated DNA methylation” (Nature Communications, 2024):
# Entries after “also recorded” stand apart in the source; their conditions may differ.
# How the values were obtained:
# [1] = tested on: (CTA)12/(TAG)12 36-mer DNA duplex; assay: In vitro DNA methylation assay of DIM2 (WT or mutant); format: biochemical; parameters: DNA methylation activity: unit not given here; details: for DNA methylation activity: 30 min, pH 8.0; for reduction of DNA methylation efficiency of DIM2 by mutation: vs WT DIM2
# [2] = Thermal shift assay, protein alone; format: physicochemical; details: 5 μM DIM2 or 10 µM HP1, pH 7.5, 1× GloMelt Dye, 4 to 95 °C, triplicate
# Procedure: Thermal shift assays were performed for WT and R1104A DIM2 proteins using a Bio-Rad CFX Connect Real-Time PCR Detection System. Each 20-µL reaction mixture contained 5 μM WT or R1104A-mutated DIM2, and/or 10 µM HP1 protein, dissolved in buffer containing 20 mM Tris-HCl (pH 7.5), 100 mM NaCl, 5% glycerol, 5 mM DTT, and 1× GloMelt Dye (Biotium). The sample plates were subject to heat from 4 to 95 °C with a stepwise increment of 5 °C. Fluorescence intensity was recorded with the excitation and emission wavelength of 470 nm and 510 nm, respectively. The experiments were carried out in triplicate.
# HP1 = assay: Size-exclusion chromatography of DIM2-HP1 complex; format: binding, Neurospora Crassa; details: 1.0 µM DIM2 and/or 2.5 µM HP1, Superdex 200 increase 10/300 GL, pH 7.5
# Procedure: For size-exclusion chromatography analysis, 400 µL of the sample mixture containing 1.0 µM DIM2 and/or 2.5 µM HP1 was loaded onto Superdex 200 increase 10/300 GL column (GE Healthcare) and eluted at a flow rate of 0.5 mL/min, in the buffer containing 20 mM Tris-HCl (pH 7.5), 100 mM NaCl, 5% glycerol, and 5 mM DTT. The proteins in each fraction were then visualized by SDS-PAGE.
# [3] = tested on: DNA duplex (Upper strand: 5’-ATTATTAATCTAAATTTA-3’); assay: Electrophoretic mobility shift assay (EMSA); format: binding; details: 0.1 µM DNA duplex, 0, 0.2 or 0.4 µM DIM2, in presence of 0.8 µM H3K9me3 peptide, pH 8.0, 4 °C
# Procedure: Each 10-µL reaction mixture contained 0.1 µM DNA duplex (Upper strand: 5’-[…]-3’) mixed with 0, 0.2, or 0.4 µM DIM2, WT or mutant (W261A or W581A), and/or 0.8 µM H3K9me3 peptide in binding buffer containing 20 mM Tris-HCl (pH 8.0), 75 mM NaCl, 10% glycerol, 5 mM DTT, and 2% NP-40. Samples were resolved on a 5% w/v polyacrylamide gel (59:1 for acrylamide:bis-acrylamide) with the running buffer containing 1 × Tris-Glycine (pH 8.6) at 4 °C for 1 h. The gel was stained with SYBR™ Gold (Thermo Fisher Scientific) for 10 min and visualized by ChemiDoc Imaging System (Bio-Rad).
# [4] = Fig. 6d, H3_1-24K9me3 binding-associated mutants, 1.0 µM DIM2, 1.0 µM DNA duplex, 30 °C, replicate 1
# [5] = Fig. 6d, H3_1-24K9me3 binding-associated mutants, 1.0 µM DIM2, 1.0 µM DNA duplex, 30 °C, replicate 2
# [6] = Fig. 6d, H3_1-24K9me3 binding-associated mutants, 1.0 µM DIM2, 1.0 µM DNA duplex, 30 °C, replicate 3
Molecule,"DNA methylation activity ([1]; Fig. 3h, in the presence of HP1 (2 µM) and H3_1-24K9me3 peptide (1.0 µM), 1.0 µM DIM2, 30 °C, replicate 1)","DNA methylation activity ([1]; Fig. 3h, in the presence of HP1 (2 µM) and H3_1-24K9me3 peptide (1.0 µM), 1.0 µM DIM2, 30 °C, replicate 2)","DNA methylation activity ([1]; Fig. 3h, in the presence of HP1 (2 µM) and H3_1-24K9me3 peptide (1.0 µM), 1.0 µM DIM2, 30 °C, replicate 3)",melting temperature (Tm) [2] [°C],DIM2-HP1 complex formation (in words) (HP1),"DNA methylation activity [1, 4]","DNA methylation activity [1, 5]","DNA methylation activity [1, 6]",reduction of DNA methylation efficiency of DIM2 by mutation [1],DNA-binding affinity of DIM2 (in words) [3]
"DIM2R1104A: DIM2 with TRD mutation R1104A (protein, left off: His6, N-terminal, cleaved | MBP, N-terminal, cleaved, DIM2 with TRD mutation R1104A) MDSPDRSHGGMFIDVPAETMGFQEDYLDMFASVLSQGLAKEGDYAHHQPLPAGKEECLEPIAVATTITPSPDDPQLQLQLELEQQFQTESGLNGVDPAPAPESEDEADLPDGFSDESPDDDFVVQRSKHITVDLPVSTLINPRSTFQRIDENDNLVPPPQSTPERVAVEDLLKAAKAAGKNKEDYIEFELHDFNFYVNYAYHPQEMRPIQLVATKVLHDKYYFDGVLKYGNTKHYVTGMQVLELPVGNYGASLHSVKGQIWVRSKHNAKKEIYYLLKKPAFEYQRYYQPFLWIADLGKHVVDYCTRMVERKREVTLGCFKSDFIQWASKAHGKSKAFQNWRAQHPSDDFRTSVAANIGYIWKEINGVAGAKRAAGDQLFRELMIVKPGQYFRQEVPPGPVVTEGDRTVAATIVTPYIKECFGHMILGKVLRLAGEDAEKEKEVKLAKRLKIENKNATKADTKDDMKNDTATESLPTPLRSLPVQVLEATPIESDIVSIVSSDLPPSENNPPPLTNGSVKPKAKANPKPKPSTQPLHAAHVKYLSQELVNKIKVGDVISTPRDDSSNTDTKWKPTDTDDHRWFGLVQRVHTAKTKSSGRGLNSKSFDVIWFYRPEDTPCCAMKYKWRNELFLSNHCTCQEGHHARVKGNEVLAVHPVDWFGTPESNKGEFFVRQLYESEQRRWITLQKDHLTCYHNQPPKPPTAPYKPGDTVLATLSPSDKFSDPYEVVEYFTQGEKETAFVRLRKLLRRRKVDRQDAPANELVYTEDLVDVRAERIVGKCIMRCFRPDERVPSPYDRGGTGNMFFITHRQDHGRCVPLDTLPPTLRQGFNPLGNLGKPKLRGMDLYCGGGNFGRGLEEGGVVEMRWANDIWDKAIHTYMANTPDPNKTNPFLGSVDDLLRLALEGKFSDNVPRPGEVDFIAAGSPCPGFSLLTQDKKVLNQVKNQSLVASFASFVDFYRPKYGVLENVSGIVQTFVNRKQDVLSQLFCALVGMGYQAQLILGDAWAHGAPQSRERVFLYFAAPGLPLPDPPLPSHSHYRVKNRNIGFLCNGESYVQRSFIPTAFKFVSAGEGTADLPKIGDGKPDACVRFPDHRLASGITPYIAAQYACIPTHPYGMNFIKAWNNGNGVMSKSDRDLFPSEGKTRTSDASVGWKRLNPKTLFPTVTTTSNPSDARMGPGLHWDEDRPYTVQEMRRAQGYLDEEVLVGRTTDQWKLVGNSVSRHMALAIGLKFREAWLGTLYD",3.1,2.552,2.87,39.5,did not affect the assembly of the DIM2-HP1 complex appreciably; also recorded: barely impacts the association of the DIM2-HP1 complex,–,–,–,–,–
"DIM2W261A: DIM2 with W261A mutation to the RFTS domain (protein, left off: His6, N-terminal, cleaved | MBP, N-terminal, cleaved, DIM2 with W261A mutation to the RFTS domain) MDSPDRSHGGMFIDVPAETMGFQEDYLDMFASVLSQGLAKEGDYAHHQPLPAGKEECLEPIAVATTITPSPDDPQLQLQLELEQQFQTESGLNGVDPAPAPESEDEADLPDGFSDESPDDDFVVQRSKHITVDLPVSTLINPRSTFQRIDENDNLVPPPQSTPERVAVEDLLKAAKAAGKNKEDYIEFELHDFNFYVNYAYHPQEMRPIQLVATKVLHDKYYFDGVLKYGNTKHYVTGMQVLELPVGNYGASLHSVKGQIAVRSKHNAKKEIYYLLKKPAFEYQRYYQPFLWIADLGKHVVDYCTRMVERKREVTLGCFKSDFIQWASKAHGKSKAFQNWRAQHPSDDFRTSVAANIGYIWKEINGVAGAKRAAGDQLFRELMIVKPGQYFRQEVPPGPVVTEGDRTVAATIVTPYIKECFGHMILGKVLRLAGEDAEKEKEVKLAKRLKIENKNATKADTKDDMKNDTATESLPTPLRSLPVQVLEATPIESDIVSIVSSDLPPSENNPPPLTNGSVKPKAKANPKPKPSTQPLHAAHVKYLSQELVNKIKVGDVISTPRDDSSNTDTKWKPTDTDDHRWFGLVQRVHTAKTKSSGRGLNSKSFDVIWFYRPEDTPCCAMKYKWRNELFLSNHCTCQEGHHARVKGNEVLAVHPVDWFGTPESNKGEFFVRQLYESEQRRWITLQKDHLTCYHNQPPKPPTAPYKPGDTVLATLSPSDKFSDPYEVVEYFTQGEKETAFVRLRKLLRRRKVDRQDAPANELVYTEDLVDVRAERIVGKCIMRCFRPDERVPSPYDRGGTGNMFFITHRQDHGRCVPLDTLPPTLRQGFNPLGNLGKPKLRGMDLYCGGGNFGRGLEEGGVVEMRWANDIWDKAIHTYMANTPDPNKTNPFLGSVDDLLRLALEGKFSDNVPRPGEVDFIAAGSPCPGFSLLTQDKKVLNQVKNQSLVASFASFVDFYRPKYGVLENVSGIVQTFVNRKQDVLSQLFCALVGMGYQAQLILGDAWAHGAPQSRERVFLYFAAPGLPLPDPPLPSHSHYRVKNRNIGFLCNGESYVQRSFIPTAFKFVSAGEGTADLPKIGDGKPDACVRFPDHRLASGITPYIRAQYACIPTHPYGMNFIKAWNNGNGVMSKSDRDLFPSEGKTRTSDASVGWKRLNPKTLFPTVTTTSNPSDARMGPGLHWDEDRPYTVQEMRRAQGYLDEEVLVGRTTDQWKLVGNSVSRHMALAIGLKFREAWLGTLYD",–,–,–,–,–,3.359,3.206,3.347,4–5 fold,modestly reduced the DNA-binding affinity
"DIM2W581A: DIM2 with W581A mutation to the BAH1 domain (protein, left off: His6, N-terminal, cleaved | MBP, N-terminal, cleaved, DIM2 with W581A mutation to the BAH1 domain) MDSPDRSHGGMFIDVPAETMGFQEDYLDMFASVLSQGLAKEGDYAHHQPLPAGKEECLEPIAVATTITPSPDDPQLQLQLELEQQFQTESGLNGVDPAPAPESEDEADLPDGFSDESPDDDFVVQRSKHITVDLPVSTLINPRSTFQRIDENDNLVPPPQSTPERVAVEDLLKAAKAAGKNKEDYIEFELHDFNFYVNYAYHPQEMRPIQLVATKVLHDKYYFDGVLKYGNTKHYVTGMQVLELPVGNYGASLHSVKGQIWVRSKHNAKKEIYYLLKKPAFEYQRYYQPFLWIADLGKHVVDYCTRMVERKREVTLGCFKSDFIQWASKAHGKSKAFQNWRAQHPSDDFRTSVAANIGYIWKEINGVAGAKRAAGDQLFRELMIVKPGQYFRQEVPPGPVVTEGDRTVAATIVTPYIKECFGHMILGKVLRLAGEDAEKEKEVKLAKRLKIENKNATKADTKDDMKNDTATESLPTPLRSLPVQVLEATPIESDIVSIVSSDLPPSENNPPPLTNGSVKPKAKANPKPKPSTQPLHAAHVKYLSQELVNKIKVGDVISTPRDDSSNTDTKWKPTDTDDHRAFGLVQRVHTAKTKSSGRGLNSKSFDVIWFYRPEDTPCCAMKYKWRNELFLSNHCTCQEGHHARVKGNEVLAVHPVDWFGTPESNKGEFFVRQLYESEQRRWITLQKDHLTCYHNQPPKPPTAPYKPGDTVLATLSPSDKFSDPYEVVEYFTQGEKETAFVRLRKLLRRRKVDRQDAPANELVYTEDLVDVRAERIVGKCIMRCFRPDERVPSPYDRGGTGNMFFITHRQDHGRCVPLDTLPPTLRQGFNPLGNLGKPKLRGMDLYCGGGNFGRGLEEGGVVEMRWANDIWDKAIHTYMANTPDPNKTNPFLGSVDDLLRLALEGKFSDNVPRPGEVDFIAAGSPCPGFSLLTQDKKVLNQVKNQSLVASFASFVDFYRPKYGVLENVSGIVQTFVNRKQDVLSQLFCALVGMGYQAQLILGDAWAHGAPQSRERVFLYFAAPGLPLPDPPLPSHSHYRVKNRNIGFLCNGESYVQRSFIPTAFKFVSAGEGTADLPKIGDGKPDACVRFPDHRLASGITPYIRAQYACIPTHPYGMNFIKAWNNGNGVMSKSDRDLFPSEGKTRTSDASVGWKRLNPKTLFPTVTTTSNPSDARMGPGLHWDEDRPYTVQEMRRAQGYLDEEVLVGRTTDQWKLVGNSVSRHMALAIGLKFREAWLGTLYD",–,–,–,–,–,4.016,4.128,4.356,4–5 fold,modestly reduced the DNA-binding affinity
